The record followed here is publication doi:10.1101/498428.

Broadly, the stoichiometry N is a count of units in the complex or per binding partner.

What all share (assay): native gel or EMSA
In general terms: Mobility shift assays separate free from complexed probe on a gel.

Assay [1] concerns the target His-Halo-PRDM9^Cst ZnF1-11 (Mus musculus castaneus (CAST/EiJ strain)).
Assay [2] addresses His-MBP-eYFP-PRDM9^Cst ZnF (Mus musculus castaneus (CAST/EiJ strain)).
Assay [3] has as its target His-MBP-eYFP-PRDM9^Dom2 ZnF (Mus musculus domesticus (C57BL/6J strain)).
Assay [4] concerns the target His-PRDM9^Cst ZnF1-11 (Mus musculus castaneus (CAST/EiJ strain)).
Assay [5] concerns the target His-PRDM9^Cst ZnF2-6 (Mus musculus castaneus (CAST/EiJ strain)).
Assay [6] has as its target His-PRDM9^Cst ZnF2-8 (Mus musculus castaneus (CAST/EiJ strain)).
Assay [7] deals with His-PRDM9^Cst ZnF (Mus musculus castaneus (CAST/EiJ strain)).
The target of assay [8] is His-eYFP-PRDM9^Cst (full-length PRDM9^Cst) (Mus musculus castaneus (CAST/EiJ strain)).
Assay [9] addresses His-eYFP-PRDM9^Cst ZnF1-11 (Mus musculus castaneus (CAST/EiJ strain)).
The target in assay [10] is His-eYFP-PRDM9^Cst ZnF2-11 (Mus musculus castaneus (CAST/EiJ strain)).
The target of assay [11] is His-eYFP-PRDM9^Cst ZnF (Mus musculus castaneus (CAST/EiJ strain)).

In [1], “His-Halo-PRDM9^Cst ZnF1-11 (domain or fragment)” registered a stoichiometry N of 3.

For “His-MBP-eYFP-PRDM9^Cst ZnF (domain or fragment)”, the stoichiometry N in [2] amounted to 3. Turning to “His-MBP-eYFP-PRDM9^Dom2 ZnF (domain or fragment)”, the stoichiometry N in [3] is 3. Regarding “His-PRDM9^Cst ZnF1-11 (domain or fragment)”, the stoichiometry N in [4] was 3.

Take “His-PRDM9^Cst ZnF2-6 (domain or fragment)”: in assay [5], the stoichiometry N was found to be 3.

Regarding “His-PRDM9^Cst ZnF2-8 (domain or fragment)”, the stoichiometry N in assay [6] turned out to be 3. For the substance His-PRDM9^Cst ZnF (domain or fragment), the stoichiometry N in [7] amounted to 3. “His-eYFP-PRDM9^Cst (full-length PRDM9^Cst) (natural protein)”: the stoichiometry N in assay [8] amounted to 3. The substance “His-eYFP-PRDM9^Cst ZnF1-11 (domain or fragment)” had a stoichiometry N in [9] of 3. With “His-eYFP-PRDM9^Cst ZnF2-11 (domain or fragment)”, the stoichiometry N in [10] is 3.

“His-eYFP-PRDM9^Cst ZnF (domain or fragment)” returned a stoichiometry N in [11] of 3.
